Our source for the binding signal values is patent US20200071711, “MODULAR CONSTRUCTION OF SYNTHETIC GENE CIRCUITS IN MAMMALIAN CELLS USING MATHEMATICAL MODELING OF CLOSED LOOP TRANSCRIPTIONAL REPRESSORS” (Tsinghua University, published 2020).

This data set has as its target T1, TALER14 (synthetic, UniProt Q56830 SEQ:262-1310).
T1 chain: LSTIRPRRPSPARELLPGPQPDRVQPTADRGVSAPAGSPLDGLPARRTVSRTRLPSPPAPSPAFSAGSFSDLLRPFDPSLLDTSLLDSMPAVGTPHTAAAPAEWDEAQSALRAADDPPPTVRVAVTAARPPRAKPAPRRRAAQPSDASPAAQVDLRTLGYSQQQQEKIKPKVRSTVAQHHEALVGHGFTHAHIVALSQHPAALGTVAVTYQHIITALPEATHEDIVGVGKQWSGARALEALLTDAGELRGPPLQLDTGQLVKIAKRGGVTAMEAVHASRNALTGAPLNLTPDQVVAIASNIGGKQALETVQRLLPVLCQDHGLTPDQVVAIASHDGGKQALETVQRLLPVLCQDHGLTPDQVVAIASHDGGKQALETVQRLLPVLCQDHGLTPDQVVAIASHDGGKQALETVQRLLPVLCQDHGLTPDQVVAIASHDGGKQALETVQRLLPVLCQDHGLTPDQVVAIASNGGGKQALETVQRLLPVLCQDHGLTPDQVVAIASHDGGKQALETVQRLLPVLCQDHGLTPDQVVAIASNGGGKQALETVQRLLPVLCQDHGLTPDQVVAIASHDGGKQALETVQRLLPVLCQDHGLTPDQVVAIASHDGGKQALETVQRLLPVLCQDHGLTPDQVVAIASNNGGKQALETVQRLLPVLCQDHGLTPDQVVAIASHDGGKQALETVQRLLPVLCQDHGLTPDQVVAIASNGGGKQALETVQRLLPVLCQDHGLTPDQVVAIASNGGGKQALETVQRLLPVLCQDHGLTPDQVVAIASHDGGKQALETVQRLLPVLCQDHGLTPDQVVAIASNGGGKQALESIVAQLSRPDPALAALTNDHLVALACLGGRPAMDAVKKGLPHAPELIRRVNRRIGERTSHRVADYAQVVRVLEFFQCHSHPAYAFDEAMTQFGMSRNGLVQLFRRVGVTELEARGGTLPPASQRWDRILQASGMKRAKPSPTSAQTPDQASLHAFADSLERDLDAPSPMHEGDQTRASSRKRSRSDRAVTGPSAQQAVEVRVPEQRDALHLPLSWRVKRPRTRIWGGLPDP
In words: cell_activity; HEK293, two sites flanking CMVmini. As to conditions: tags: EYFP-2A upstream, SV40 NLS.

B1: T14 site (dsDNA)
DNA 1: TACCCCTCTCCGCTTCT
DNA 2: AGAAGCGGAGAGGGGTA
B1: the binding signal came out at 1440 fold repression.
